From patent US20240293460A1 (published 2024) come the findings set out here.

This assay has as its target soluble DKK1 peptide P20/HLA-A2 complex (human;, UniProt P61769 21-119; O94907 20-29). Description: SPR.

In general, Kd refers to the equilibrium constant for the complex coming apart. Read a high Kd as a looser complex.

B1: DKK1-A2 mAb HMB1 (antibody, V domains shown)
VH: QVQLKESGPGLVAPSQSLSITCTVSGFSLTDFAVTWIRQPPGKGLEWLGVIWGGGSTYYNSALKSRLSISKDNSKSQVFLKMNSLQTDDTAMYYCAKTTPIYFDYDHALDYWGQGTSVTVSS
VL: DVVVTQTPLSLPVSFGDQVSISCRSSQSLTNSYGNTYLSWYLHKPGQSPQLLIYGISNRFSGVPDRFSGSGSGTDFTLKISTIKPEDLGMYYCLQGTHQPYTFGGGTKLEIK
Take B1: the equilibrium dissociation constant (Kd) was 0.0176 µM.

B2: DKK1-A2 mAb HMB7 (antibody, V domains shown)
VH: EVQLQQSGAELVKPGASVKLSCTASGFNIKDTYMHWVKQRPEQGLEWIGRIDPANGDTKYDPKFQGKATITADTSSNTAYLHLSSLTSEDTAVYYCARGRYYYGTSSFDYWGQGTTLTVSS
VL: DIVMTQSHKFMSTSVGDWVSITCKAWQDVDTAVAWYQQKPGQSPKLLIYWASTRHTGVPDRFTGSGSGTDFTLTISNVQSEDLADYFCQQYSSYPYTFGGGTKLEIK
B2 displayed a Kd of 2.78 µM.
